# Entries after “also recorded” stand apart in the source; their conditions may differ.
# T1: Ac-DEVD-CHO
# T1 chain: DEVD
# T2: HILR-030 (cyclo-[Pro-Arg-Gly-Pro-Arg-Pro-Val-Trp-Trp-Gpa-Gpa-Trp-Trp-Gpa-Gpa-Trp-Trp])
# T2 chain: PRGPRPVWWXXWWXXXW
# B1: recombinant human caspase 3 enzyme (protein)
# chain: SGISLDNSYKMDYPEMGLCIIINNKNFHKSTGMTSRSGTDVDAANLRETFRNLKYEVRNKNDLTREEIVELMRDVSKEDHSKRSSFVCVLLSHGEEGIIFGTNGPVDLKKITNFFRGDRCRSLTGKPKLFIIQACRGTELDCGIETDSGVDDDMACHKIPVEADFLYAYSTAPGYYSWRNSKDGSWFIQSLCAMLKQYADKLEFMHILTRVNRKVATEFESFSFDATFHAKKQIPCIVSMLTKELYFYH
# Assays:
# Ac-DEVD-CHO = target: T1, Ac-DEVD-CHO
# [1] = target: T2, HILR-030 …
protein,measurement,setting,value
B1,"caspase-3 activity (Apo-ONE Homogeneous Caspase-3/7 assay, cleavage of Z-DEVD-R110)",Ac-DEVD-CHO,"inhibited the activity of caspase-3 in a dose-dependent manner, giving rise to IC50s within the expected range; also recorded: inhibited the caspase-3 activity in a dose-dependent fashion"
same,"caspase-3 activity (Apo-ONE Homogeneous Caspase-3/7 assay, cleavage of Z-DEVD-R110)",[1],inhibited the caspase-3 activity in a dose-dependent fashion
